Experimental data: publication PMC10397247
Where two headings read alike, the source gives them in different places.

Columns and labels:
Experiment in all cases: two-hybrid library CCNG1;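 further: natural log of median RNA to DNA barcode read ratio; higher means stronger binding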
[1] = molecular target: T1, O16-bN
T1 chain: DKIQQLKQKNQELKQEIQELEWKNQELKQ

[2] = molecular target: T2, O15-bN
T2 chain: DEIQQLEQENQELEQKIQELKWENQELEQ

[3] = molecular target: T3, O2-bN
T3 chain: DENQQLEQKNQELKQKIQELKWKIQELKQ

[4] = molecular target: T4, O5-bN
T4 chain: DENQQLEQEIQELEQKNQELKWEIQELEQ

[5] = molecular target: T5, O4-bN
T5 chain: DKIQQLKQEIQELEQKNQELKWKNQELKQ

[6] = molecular target: T6, O3-bN
T6 chain: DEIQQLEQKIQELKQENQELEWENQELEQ

[7] = molecular target: T7, O8-bN
T7 chain: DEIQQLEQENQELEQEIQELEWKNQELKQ

[8] = molecular target: T8, O9-bN
T8 chain: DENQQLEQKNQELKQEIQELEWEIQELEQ

[9] = molecular target: T9, O7-bN
T9 chain: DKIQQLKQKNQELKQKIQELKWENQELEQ

[10] = molecular target: T10, O6-bN
T10 chain: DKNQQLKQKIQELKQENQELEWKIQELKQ

[11] = molecular target: T11, 4H607-bA
T11 chain: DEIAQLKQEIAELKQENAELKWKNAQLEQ

[12] = molecular target: T12, 4H568-bA
T12 chain: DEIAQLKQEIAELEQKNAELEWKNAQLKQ

[13] = molecular target: T13, 4H3855-bA
T13 chain: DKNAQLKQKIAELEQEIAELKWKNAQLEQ

[14] = molecular target: T14, 4H918-bA
T14 chain: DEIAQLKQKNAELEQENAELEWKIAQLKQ

[15] = molecular target: T15, 4H908-bA
T15 chain: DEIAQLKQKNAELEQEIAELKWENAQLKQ

[16] = molecular target: T16, 4H717-bA
T16 chain: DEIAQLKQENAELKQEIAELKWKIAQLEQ

[17] = molecular target: T17, 4H953-bA
T17 chain: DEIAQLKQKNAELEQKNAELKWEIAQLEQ

[18] = molecular target: T18, O15-bH
T18 chain: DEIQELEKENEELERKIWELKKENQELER

[19] = molecular target: T19, 4H4001-bA
T19 chain: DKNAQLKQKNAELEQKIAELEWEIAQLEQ

[20] = molecular target: T20, 4H687-bA
T20 chain: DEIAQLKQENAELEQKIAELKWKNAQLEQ

[21] = molecular target: T21, 4H967-bA
T21 chain: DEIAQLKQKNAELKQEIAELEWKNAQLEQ

[22] = molecular target: T22, 4H3782-bA
T22 chain: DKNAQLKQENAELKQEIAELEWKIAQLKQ

[23] = molecular target: T23, 4H754-bA
T23 chain: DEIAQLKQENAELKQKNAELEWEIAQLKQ

[24] = molecular target: T24, 4H338-bA
T24 chain: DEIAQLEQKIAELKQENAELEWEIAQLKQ

[25] = molecular target: T25, 4H883-bA
T25 chain: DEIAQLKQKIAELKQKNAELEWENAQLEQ

[26] = molecular target: T26, 4H72-bA
T26 chain: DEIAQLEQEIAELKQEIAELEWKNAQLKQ

[27] = molecular target: T27, 4H454-bA
T27 chain: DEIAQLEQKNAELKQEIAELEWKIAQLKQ

[28] = molecular target: T28, 4H797-bA
T28 chain: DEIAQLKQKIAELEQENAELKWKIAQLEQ

[29] = molecular target: T29, 4H3427-bA
T29 chain: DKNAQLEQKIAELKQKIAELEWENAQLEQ

[30] = molecular target: T30, 4H741-bA
T30 chain: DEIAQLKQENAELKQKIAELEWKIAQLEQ

[31] = molecular target: T31, 4H40-bA
T31 chain: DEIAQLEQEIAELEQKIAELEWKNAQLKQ

[32] = molecular target: T32, 4H3277-bA
T32 chain: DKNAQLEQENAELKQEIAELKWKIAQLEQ

[33] = molecular target: T33, 4H2588-bA
T33 chain: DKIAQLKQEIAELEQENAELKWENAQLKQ

[34] = molecular target: T34, 4H319-bA
T34 chain: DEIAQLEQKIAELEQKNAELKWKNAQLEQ

[35] = molecular target: T35, 4H3057-bA
T35 chain: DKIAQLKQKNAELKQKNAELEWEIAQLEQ

[36] = molecular target: T36, 4H2717-bA
T36 chain: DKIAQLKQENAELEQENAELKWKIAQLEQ

[37] = molecular target: T37, 4H348-bA
T37 chain: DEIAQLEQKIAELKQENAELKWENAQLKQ

[38] = molecular target: T38, 4H2692-bA
T38 chain: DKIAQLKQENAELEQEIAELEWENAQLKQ

[39] = molecular target: T39, 4H2839-bA
T39 chain: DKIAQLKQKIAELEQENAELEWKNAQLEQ

[40] = molecular target: T40, 4H2915-bA
T40 chain: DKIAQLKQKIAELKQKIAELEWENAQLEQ

[41] = molecular target: T41, 4H492-bA
T41 chain: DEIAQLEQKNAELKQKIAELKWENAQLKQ

[42] = molecular target: T42, 4H3162-bH
T42 chain: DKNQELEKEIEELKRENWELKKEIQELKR

[43] = molecular target: T43, 4H2503-bA
T43 chain: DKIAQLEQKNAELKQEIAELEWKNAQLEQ

[44] = molecular target: T44, 4H477-bA
T44 chain: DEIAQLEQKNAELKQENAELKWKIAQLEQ

[45] = molecular target: T45, 4H4073-bA
T45 chain: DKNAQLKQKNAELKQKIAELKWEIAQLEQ

[46] = molecular target: T46, 4H457-bA
T46 chain: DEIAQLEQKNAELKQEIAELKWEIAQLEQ

[47] = molecular target: T47, 4H780-bA
T47 chain: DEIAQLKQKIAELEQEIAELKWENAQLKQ

[48] = molecular target: T48, 4H346-bA
T48 chain: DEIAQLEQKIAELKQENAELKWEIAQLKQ

[49] = molecular target: T49, 4H3926-bA
T49 chain: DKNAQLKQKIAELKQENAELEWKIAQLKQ

[50] = molecular target: T50, 4H683-bA
T50 chain: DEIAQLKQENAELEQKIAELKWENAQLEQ

[51] = molecular target: T51, P7bH1
T51 chain: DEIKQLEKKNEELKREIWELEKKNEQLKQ

[52] = molecular target: T52, 4H968-bA
T52 chain: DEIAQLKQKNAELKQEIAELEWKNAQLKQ

[53] = molecular target: T53, 4H575-bA
T53 chain: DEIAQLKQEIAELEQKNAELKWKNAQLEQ

[54] = molecular target: T54, 4H855-bA
T54 chain: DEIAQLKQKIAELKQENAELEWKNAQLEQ

[55] = molecular target: T55, P8mS
T55 chain: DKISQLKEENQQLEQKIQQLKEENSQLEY

[56] = molecular target: T56, P7mS
T56 chain: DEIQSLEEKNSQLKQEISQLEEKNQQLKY

[57] = molecular target: T57, P9mS
T57 chain: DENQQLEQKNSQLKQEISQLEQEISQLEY

## DKNQQLKQKIQELKQKNQELKWEIQELEQ [O13-bN]
[1]
  interaction score: -1.23
[2]
  interaction score: -0.801
[3]
  interaction score: -1.79
[4]
  interaction score: -2.42
[5]
  interaction score: -2.32
[6]
  interaction score: -0.827
[7]
  interaction score: -1.07
[8]
  interaction score: -1.61
[9]
  interaction score: -1.39
[10]
  interaction score: -0.733

## DEIAQLEQKIAELKQENAELEWEIAQLKQ [4H338-bA]
[11]
  interaction score: -0.707
[12]
  interaction score: 0.415
[13]
  interaction score: -0.445
[14]
  interaction score: -1.39
[15]
  interaction score: -0.695
[16]
  interaction score: -0.573
[17]
  interaction score: -0.0976
[18]
  interaction score: 0.0935
[19]
  interaction score: 0.217
[20]
  interaction score: -1.18
[21]
  interaction score: 0.424
[22]
  interaction score: -0.133
[23]
  interaction score: -0.95
[24]
  interaction score: 0.363
[25]
  interaction score: -0.973
[26]
  interaction score: -0.139
[27]
  interaction score: 2.01
[28]
  interaction score: -0.317
[29]
  interaction score: 0.0707

## DKIAQLEQKNAELKQEIAELEWKNAQLEQ [4H2503-bA]
[30]
  interaction score: -0.407
[31]
  interaction score: -0.475
[32]
  interaction score: -0.659
[33]
  interaction score: -0.447
[34]
  interaction score: -1.63
[35]
  interaction score: -0.42
[36]
  interaction score: -0.684
[20]
  interaction score: 1.12
[37]
  interaction score: -1.13
[38]
  interaction score: 0.466
[39]
  interaction score: -0.791
[40]
  interaction score: -0.804
[41]
  interaction score: -0.351
[42]
  interaction score: -2.22
[43]
  interaction score: -0.591
[44]
  interaction score: -0.816

## DKNAQLEQKIAELKQKIAELEWENAQLEQ [4H3427-bA]
[45]
  interaction score: 0.792
[46]
  interaction score: -1.11
[11]
  interaction score: -0.868
[47]
  interaction score: -1.09
[48]
  interaction score: -1.15
[49]
  interaction score: -0.817
[12]
  interaction score: 0.738
[13]
  interaction score: -0.947
[50]
  interaction score: -0.996
[51]
  interaction score: -0.632
[2]
  interaction score: -0.0232
[14]
  interaction score: -0.926
[15]
  interaction score: -0.823
[16]
  interaction score: -1.4
[17]
  interaction score: -1.25
[19]
  interaction score: -0.314
[20]
  interaction score: -1.79
[21]
  interaction score: -1.02
[22]
  interaction score: -0.499
[23]; mean of both orientations
  interaction score: -0.767
[52]
  interaction score: -0.904
[25]
  interaction score: -0.625
[26]
  interaction score: 0.449
[53]
  interaction score: 0.0418
[27]
  interaction score: -0.617
[54]
  interaction score: -1.16
[28]
  interaction score: -0.827
[29]
  interaction score: 0.0593

## DEIQQLEQENQELEQKIQELKWENQELEQ [O15-bN]
[1]
  interaction score: 1.92
[2]
  interaction score: -0.195
[3]
  interaction score: -1.5
[4]
  interaction score: -0.822
[5]
  interaction score: 0.275
[6]
  interaction score: -0.189
[7]
  interaction score: -1.62
[8]
  interaction score: -0.491
[9]
  interaction score: 1.29
[10]
  interaction score: -0.314

## DENQQLEQEIQELEQENQELEWKIQELKQ [O14-bN]
[1]
  interaction score: 1.69
[2]
  interaction score: -0.117
[3]
  interaction score: 0.0465
[4]
  interaction score: -0.308
[5]
  interaction score: -1.01
[6]
  interaction score: 0.477
[7]
  interaction score: -1.68
[8]
  interaction score: -0.149
[9]
  interaction score: 1.78
[10]
  interaction score: 0.642

## DEIQSLEEKNSQLKQEISQLEEKNQQLKY [P7mS]
[55]
  interaction score: 1.28
[56]
  interaction score: -0.531
[57]
  interaction score: 0.076
